The source of these data is the supplement of paper PMC9170038.

In the data set the test system is MS2 coat protein. The data set can be described thus: apparent KD of MS2 coat protein; designed switch direction (-1 OFF switch, 1 ON switch): -1; higher = weaker reporter binding. The procedure, abridged: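 Each step of the titration lasted 0.8–1.5 h at the lowest concentration and 10–20 min at the highest. The protein, SNAP-549-labelled MS2 coat protein, went from 0.7 or 1.5 nM doubling to 3 µM over RNA switches transcribed on Illumina chips by stalled E. coli RNA polymerase. Normalised cluster fluorescence was curve-fitted, and the per-design median over clusters is given as apparent KD.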

The mark [1] stands for this setting: Eterna round: R95, input ligand: FMN 200 uM.
The mark [2] stands for this setting: Eterna round: R95, input ligand: microRNA oligo, concentration not stated.
Setting [3] is: Eterna round: R95, input ligand: none.
Setting [4] is: input ligand: microRNA oligo, concentration not stated.

Regarding “GGUUGGCGAGGAUAUACAUGAGGAUCACCCAUGUGAGAGAAUAAAGUGAGAAAGAAAAGUAGAAGGCGCUGACA [Mat - Exclusion 3 - Mod of Salish D51] (puzzle: Exclusion 3)”, the “apparent KD of MS2 coat protein” value turned out to be 900 nM under setting [1], 46.9 nM under setting [2] and 63.9 nM under setting [3].
“AGUAGUAGUAUCCGAUCCUACAUGAGGAUCACCCAUGUAGCUAGACGUGCACGCGAUGCUCGUCAGACUACCAGAUG [salish99_TOv1_r3_033] (puzzle: Sensor v3, turn-off variant 1)”: the “apparent KD of MS2 coat protein” value reads like this: under setting [1], 195 nM; under setting [2], 184 nM; under setting [3], 253 nM.
Consider “GUUUCACAUGAGGAUCACCCAUGUGAGGAUAUAAAUUUGUUAACCGUAGUUAAUAGAUUUAGAAGGCGCGUGAU [JR_Exc1_Sub001] (Eterna round: R97, puzzle: Exclusion 1)”, for which the “apparent KD of MS2 coat protein” value was determined as 68.2 nM (input ligand: FMN 200 uM) and 63.1 nM (input ligand: none).
In the same order, the values of “CUUUAGUGAGGAUAUGUGGCUUCGAUCGUGAGAUCGAGGCUACAGAAGGCACAUGAGGAUCACCCAUGUUCCUC [jl-ex4-4.01 salish99 mod] (Eterna round: R97, puzzle: Exclusion 4)” are 464 nM and 34.1 nM.
As to “AUUUGCACGCUGCGGUCCUACAUGAGGAUCACCCAUGUGGUCUGGUGGCGUGGGUCGCCGGACUUGGCUCGUCUUGA [salish99_S_TOV1_R5_032] (Eterna round: R97, puzzle: Sensor, turn-off variant 1)”, the “apparent KD of MS2 coat protein” value runs as follows: (input ligand: FMN 200 uM) 17.5 nM; (input ligand: none) 17.9 nM.
Regarding “AUAAUGUCAGGAUAUACUAAUGAUGAAUGAUCAGACAUUAUGUAGAAGGGACAUGAGGAUCACCCAUGUAAUAU [EX4 #3] (Eterna round: R97, puzzle: Exclusion 4)”, the “apparent KD of MS2 coat protein” value by setting is: (input ligand: FMN 200 uM) 35.5 nM; (input ligand: none) 29.1 nM.
With “ACAAGCUAACUCAUAUCUUACAUGAGGAUCACCCAUGUUUUUUCAAUUUUGUUUGGUCUCCUUUGUGCUCGUCUUAU [JR_STOV1_Sub052] (Eterna round: R97, puzzle: Sensor, turn-off variant 1)”, the “apparent KD of MS2 coat protein” value is, setting by setting: (input ligand: FMN 200 uM) 66 nM; (input ligand: none) 64.9 nM.
On to “AGGACGAUAGGAUAUACAUGAGGAUCACCCAUGUGCAUAAGAAUAUGCCAAUCCACGCGUAGAAGGAUCAUAAU [Eternabot (Original) Solution 11] (Eterna round: R97, puzzle: Exclusion 3)”, for which the “apparent KD of MS2 coat protein” value is 65.4 nM (input ligand: FMN 200 uM) and 28.1 nM (input ligand: none).
“AAAAUGUAAGGAUAUAGCCGGAACCCAGGGUCAAUACCCGGCUAGAAGGUACAUGAGGAUCACCCAUGUAAGAA [Excls4-VI] (puzzle: Exclusion 4)”: the “apparent KD of MS2 coat protein” value reads like this: under setting [1], 21.6 nM; under setting [2], 18.9 nM; under setting [3], 16.5 nM.
Regarding “UUGUGCACGCUGCGAUCCUACAUGAGGAUCACCCAUGUGGUCUGGUGGCGUGGGUCACCGGACUUGGCUCGUCUUGA [salish99_S_TOV1_R5_068] (Eterna round: R97, puzzle: Sensor, turn-off variant 1)”, the “apparent KD of MS2 coat protein” value (input ligand: FMN 200 uM) came to 118 nM and the “apparent KD of MS2 coat protein” value (input ligand: none) was 129 nM.
As to “GAGACACAUGAGGAUCACCCAUGUGAGGAUAUCCGAAGGACCAAAUUAAGAAUUAAAGGGAGAAGGCACAUAAA [Exclusion 1 V5] (puzzle: Exclusion 1)”, the “apparent KD of MS2 coat protein” value under setting [2] stood at 27.2 nM.
As for “UUAUUGCAAGCAAGAUCCCACAUGAGGAUCACCCAUGUGCUCGUCUUAUAAGGUACUGUGACGAAAGUCACGGUACC [Sensor 3, v1 - 99] (puzzle: Sensor v3, turn-off variant 1)”, the “apparent KD of MS2 coat protein” value under setting [1] is 26 nM, the “apparent KD of MS2 coat protein” value under setting [2] turned out to be 462 nM and the “apparent KD of MS2 coat protein” value under setting [3] came to 30.6 nM.
For “GGAAAGGUAGGAUAUACGAAGAAAAAGGGUAGAAGAAAAACACAUGAGGAUCACCCAUGUAGAAGGACCAAAGG [Mat - Exclusion 2 - Mod of my Tesla design - D2] (puzzle: Exclusion 2)”, the “apparent KD of MS2 coat protein” value runs as follows: under setting [1], 51.4 nM; under setting [2], 22.1 nM; under setting [3], 23.4 nM.
In the case of “AGAUCGUCAGGAUAUACAUGAGGAUCACCCAUGUGUAGUUCCAAUUGGACUACAACAUGUAGAAGGGACGAUCG [Exclusion 3 (MOD1 of #1 Marzena11)] (Eterna round: R97, puzzle: Exclusion 3)”, the “apparent KD of MS2 coat protein” value was found to be 1060 nM (input ligand: FMN 200 uM) and 675 nM (input ligand: none).
Consider “AAAAAGCUAGGAUAUACAUGAGGAUCACCCAUGUGAGGGCACCGCGGGCGCGGGACCGGUAGAAGGAGCAAAAA [Exc;s3-III] (puzzle: Exclusion 3)”, for which the “apparent KD of MS2 coat protein” value is, setting by setting: under setting [1], 23.5 nM; under setting [2], 24.9 nM; under setting [3], 29.1 nM.
“AUUGUAUGGAAAGGAUAUAGAAUAUUAUUUUAACAUGAGGAUCACCCAUGUAACCUUAUGUGUAGCUAGAAGGUUCGUUUGUUA [Title] (Eterna round: R96, puzzle: Exclusion NG 2)”: the “apparent KD of MS2 coat protein” value under setting [4] stood at 69.2 nM.
With “CUAGCGAUUGUAGGAUAUCGGACUGUUUCAGUCUGAGAAGGACAUGAGGAUCACCCAUGUGAUGCUACGUGAGUAGCACGCUAG [JL ENG1 3.85] (Eterna round: R96, puzzle: Exclusion NG 1)”, the “apparent KD of MS2 coat protein” value reads like this: (input ligand: FMN 200 uM) 76.9 nM; under setting [4], 20 nM; (input ligand: none) 30.5 nM.
In the case of “ACAUGAGGAUCACCCAUGUCCGGCUGGUCUGUCUCGGCUGUCGAGGAUAUAGCUCGGUAUCCGCGCUAGAAGGCGGGAGCCGGU [Aenatbe mod 91] (Eterna round: R96, puzzle: Exclusion NG 3)”, the “apparent KD of MS2 coat protein” value amounted to 76.7 nM (input ligand: FMN 200 uM), 29.4 nM under setting [4] and 48.8 nM (input ligand: none).
Turning to “ACAAGCUUUGUUGUGGGUGACAUGAGGAUCACCCAUGUUUGCCACGUCUUGUGGGCCCGGGCCCGCGGCCCGGGCCC [-42.9, -63.9, A 13%] (Eterna round: R97, puzzle: Sensor, turn-off variant 1)”, the “apparent KD of MS2 coat protein” value reads like this: (input ligand: FMN 200 uM) 50.3 nM; (input ligand: none) 55.1 nM.
Consider “CCAUGUUAGCAGGAUAUGCAAUAAAUCUUUUAAGCAGAAGGGCUUACAUGAGGAUCACCCAUGUAUAAUUUCAA [JR_E6_Sub080] (puzzle: Exclusion 6)”, for which the “apparent KD of MS2 coat protein” value under setting [2] was found to be 42.6 nM.
With “GCGAAAGCAAGCAAGUGAAACAUGAGGAUCACCCAUGUCCUCAUUUGCUCGUCUUGUAAGCUAUGCGAAAGCAUAGC [Sensor 3, v1 - 5] (puzzle: Sensor v3, turn-off variant 1)”, the “apparent KD of MS2 coat protein” value by setting is: under setting [1], 12.1 nM; under setting [2], 53.3 nM; under setting [3], 11.9 nM.
On to “GCACGGAGUGUAGGAUAUCUGUGCGAUUAGCUCAGAGAAGGACACAUGAGGAUCACCCAUGUGUUCCUCGGAAACGAACCGUGC [Eli exng1 - 051] (Eterna round: R96, puzzle: Exclusion NG 1)”, for which the “apparent KD of MS2 coat protein” value runs as follows: (input ligand: FMN 200 uM) 32.2 nM; under setting [4], 10.9 nM; (input ligand: none) 14 nM.
As to “AGAUCUAGGACAGGAUAUACAGAUGGCUUCAUCGAAGAUGAAGCCAUCACAUGAGGAUCACCCAUGUAGAAGGGUCCUAGAUCA [Omei Exc(NG) 2Av4] (Eterna round: R96, puzzle: Exclusion NG 2)”, the “apparent KD of MS2 coat protein” value is, setting by setting: (input ligand: FMN 200 uM) 19.2 nM; under setting [4], 9.47 nM; (input ligand: none) 13.2 nM.
